Measured values reported in patent publication US20150344570A1 (published 2015).

T1: FcγRIIb extracellular domain with C-terminal His tag (human, UniProt P31994 43-217)
T1 construct: extracellular domain; also called FcgRIIb; 2b
T1 sequence (looked up): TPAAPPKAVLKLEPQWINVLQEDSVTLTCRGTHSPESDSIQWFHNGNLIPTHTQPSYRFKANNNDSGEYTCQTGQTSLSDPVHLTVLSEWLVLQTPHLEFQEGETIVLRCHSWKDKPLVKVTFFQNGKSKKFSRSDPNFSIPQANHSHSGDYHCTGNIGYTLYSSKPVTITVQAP

T2: FcγRIIa R (human, UniProt P12318 34-217)
T2 construct: extracellular domain; also called FcgRIIa R type; 2aR
T2 sequence (looked up): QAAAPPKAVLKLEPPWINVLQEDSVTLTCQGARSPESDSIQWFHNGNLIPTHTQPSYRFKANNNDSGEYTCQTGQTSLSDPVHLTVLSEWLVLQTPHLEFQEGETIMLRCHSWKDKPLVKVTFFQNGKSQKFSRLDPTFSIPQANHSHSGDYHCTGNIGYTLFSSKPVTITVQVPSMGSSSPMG

B1: GpH7-B3 variant G237_02A/GpL16-k0 (antibody, human IgG1, kappa)
heavy: not shown
light: DIVMTQSPLSLPVTPGEPASISCQASESLVHSNRNTYLHWYLQKPGQSPQLLIYKVSNRFSGVPDRFSGSGSGTDFTLKISRVEAEDVGVYYCSQNTHVPPTFGQGTKVEIERTVAAPSVFIFPPSDEQLKSGTASVVCLLNNFYPREAKVQWKVDNALQSGNSQESVTEQDSKDSTYSLSSTLTLSKADYEKHKVYACEVTHQGLSSPVTKSFNRGEC
notes: also called Ho Ab G237_02A
B2: GpH7-B3 variant A327_07I/GpL16-k0 (antibody, human IgG1, kappa)
heavy: not shown
light: B1 light
notes: also called Ho Ab A327_07I
B3: GpH7-B3 variant N325_06M/GpL16-k0 (antibody, human IgG1, kappa)
heavy: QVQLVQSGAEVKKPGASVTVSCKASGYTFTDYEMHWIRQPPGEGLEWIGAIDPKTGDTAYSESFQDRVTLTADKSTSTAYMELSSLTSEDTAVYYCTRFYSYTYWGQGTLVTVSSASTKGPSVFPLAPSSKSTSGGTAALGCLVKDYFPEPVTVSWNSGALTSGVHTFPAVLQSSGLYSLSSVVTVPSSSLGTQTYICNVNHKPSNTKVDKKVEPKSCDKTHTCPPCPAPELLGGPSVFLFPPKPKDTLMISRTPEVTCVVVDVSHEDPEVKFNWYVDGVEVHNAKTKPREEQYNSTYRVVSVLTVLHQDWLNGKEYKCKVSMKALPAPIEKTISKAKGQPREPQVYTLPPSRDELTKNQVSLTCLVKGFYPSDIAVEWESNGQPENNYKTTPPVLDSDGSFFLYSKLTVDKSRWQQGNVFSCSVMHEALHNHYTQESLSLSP
light: B1 light
notes: also called Ho Ab N325_06M
B4: GpH7-B3 variant L235_15Y/GpL16-k0 (antibody, human IgG1, kappa)
heavy: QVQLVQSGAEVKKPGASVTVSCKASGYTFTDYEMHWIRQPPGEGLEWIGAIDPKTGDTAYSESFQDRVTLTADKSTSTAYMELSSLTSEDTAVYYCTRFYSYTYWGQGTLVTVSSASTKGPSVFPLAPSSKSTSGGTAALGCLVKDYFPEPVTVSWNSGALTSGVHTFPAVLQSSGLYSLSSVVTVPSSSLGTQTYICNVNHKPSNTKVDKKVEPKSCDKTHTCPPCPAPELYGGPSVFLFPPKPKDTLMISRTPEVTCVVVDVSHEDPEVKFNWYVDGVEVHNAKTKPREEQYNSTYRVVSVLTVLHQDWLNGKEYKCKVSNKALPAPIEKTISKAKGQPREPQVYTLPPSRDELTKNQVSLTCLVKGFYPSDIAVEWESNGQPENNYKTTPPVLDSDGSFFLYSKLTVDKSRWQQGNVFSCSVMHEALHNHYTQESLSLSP
light: B1 light
notes: also called Ho Ab L235_15Y
B5: GpH7-B3 variant P238_03V/GpL16-k0 (antibody, human IgG1, kappa)
heavy: not shown
light: B1 light
notes: also called Ho Ab P238_03V
B6: GpH7-B3 variant P238_04F/GpL16-k0 (antibody, human IgG1, kappa)
heavy: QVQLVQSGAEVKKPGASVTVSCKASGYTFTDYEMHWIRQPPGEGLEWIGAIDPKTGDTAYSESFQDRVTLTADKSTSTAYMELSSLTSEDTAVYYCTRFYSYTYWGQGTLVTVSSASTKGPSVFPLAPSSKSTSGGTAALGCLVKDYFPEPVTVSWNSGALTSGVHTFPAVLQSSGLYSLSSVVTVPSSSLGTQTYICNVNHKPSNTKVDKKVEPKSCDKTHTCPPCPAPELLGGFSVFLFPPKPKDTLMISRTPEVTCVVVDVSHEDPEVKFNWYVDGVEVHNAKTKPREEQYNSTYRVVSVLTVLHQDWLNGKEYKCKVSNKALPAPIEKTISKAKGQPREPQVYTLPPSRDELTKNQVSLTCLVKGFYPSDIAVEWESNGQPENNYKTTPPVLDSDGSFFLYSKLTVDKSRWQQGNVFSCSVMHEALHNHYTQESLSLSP
light: B1 light
notes: also called Ho Ab P238_04F
B7: GpH7-B3 variant H268_15Y/GpL16-k0 (antibody, human IgG1, kappa)
heavy: not shown
light: B1 light
notes: also called Ho Ab H268_15Y
B8: GpH7-B3 variant I336_06M/GpL16-k0 (antibody, human IgG1, kappa)
heavy: not shown
light: B1 light
notes: also called Ho Ab I336_06M
B9: GpH7-B3 variant L328_09D/GpL16-k0 (antibody, human IgG1, kappa)
heavy: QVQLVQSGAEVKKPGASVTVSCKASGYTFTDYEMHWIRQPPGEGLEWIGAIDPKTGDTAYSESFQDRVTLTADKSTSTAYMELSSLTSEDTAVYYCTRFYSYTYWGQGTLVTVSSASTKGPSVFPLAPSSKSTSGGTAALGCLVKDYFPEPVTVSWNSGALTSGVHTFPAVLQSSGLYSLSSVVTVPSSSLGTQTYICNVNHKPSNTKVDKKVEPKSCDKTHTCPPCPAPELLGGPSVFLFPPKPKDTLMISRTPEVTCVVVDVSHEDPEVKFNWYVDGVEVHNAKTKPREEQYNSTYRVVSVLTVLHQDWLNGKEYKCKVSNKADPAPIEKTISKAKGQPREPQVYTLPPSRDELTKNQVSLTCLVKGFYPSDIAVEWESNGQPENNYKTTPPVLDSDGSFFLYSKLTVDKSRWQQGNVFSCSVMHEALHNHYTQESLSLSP
light: B1 light
notes: also called Ho Ab L328_09D
B10: GpH7-B3 variant N325_07I/GpL16-k0 (antibody, human IgG1, kappa)
heavy: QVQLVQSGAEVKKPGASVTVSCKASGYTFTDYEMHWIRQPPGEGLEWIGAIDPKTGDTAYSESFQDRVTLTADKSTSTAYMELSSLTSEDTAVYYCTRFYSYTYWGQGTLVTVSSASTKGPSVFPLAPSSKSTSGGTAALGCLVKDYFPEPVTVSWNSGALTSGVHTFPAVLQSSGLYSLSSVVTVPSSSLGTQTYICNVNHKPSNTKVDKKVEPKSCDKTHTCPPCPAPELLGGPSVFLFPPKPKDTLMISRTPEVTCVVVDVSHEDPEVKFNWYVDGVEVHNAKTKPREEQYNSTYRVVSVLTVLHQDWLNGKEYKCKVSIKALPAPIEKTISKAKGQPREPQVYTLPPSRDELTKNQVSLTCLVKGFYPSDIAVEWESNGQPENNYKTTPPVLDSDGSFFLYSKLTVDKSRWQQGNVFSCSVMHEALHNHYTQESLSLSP
light: B1 light
notes: also called Ho Ab N325_07I
B11: GpH7-B3 variant N325_20W/GpL16-k0 (antibody, human IgG1, kappa)
heavy: not shown
light: B1 light
notes: also called Ho Ab N325_20W
B12: GpH7-B3 variant G237_15Y/GpL16-k0 (antibody, human IgG1, kappa)
heavy: not shown
light: B1 light
notes: also called Ho Ab G237_15Y
B13: GpH7-B3 variant I336_08L/GpL16-k0 (antibody, human IgG1, kappa)
heavy: not shown
light: B1 light
notes: also called Ho Ab I336_08L
B14: GpH7-B3 variant L234_20W/GpL16-k0 (antibody, human IgG1, kappa)
heavy: not shown
light: B1 light
notes: also called Ho Ab L234_20W
B15: GpH7-B3 variant L328_10E/GpL16-k0 (antibody, human IgG1, kappa)
heavy: not shown
light: B1 light
notes: also called Ho Ab L328_10E
B16: GpH7-B3 variant L234_09D/GpL16-k0 (antibody, human IgG1, kappa)
heavy: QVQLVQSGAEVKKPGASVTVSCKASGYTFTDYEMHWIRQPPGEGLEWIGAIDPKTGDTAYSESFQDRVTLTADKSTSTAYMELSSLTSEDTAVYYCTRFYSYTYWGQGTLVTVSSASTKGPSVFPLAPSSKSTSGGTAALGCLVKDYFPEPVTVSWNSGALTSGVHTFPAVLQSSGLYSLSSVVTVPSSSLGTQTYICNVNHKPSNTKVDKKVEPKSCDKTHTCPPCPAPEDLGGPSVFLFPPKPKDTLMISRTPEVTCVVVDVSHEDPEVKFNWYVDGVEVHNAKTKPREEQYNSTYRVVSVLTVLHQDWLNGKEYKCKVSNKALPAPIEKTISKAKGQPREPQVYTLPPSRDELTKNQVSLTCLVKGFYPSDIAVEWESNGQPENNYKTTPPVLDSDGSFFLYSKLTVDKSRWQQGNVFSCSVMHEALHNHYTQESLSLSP
light: B1 light
notes: also called Ho Ab L234_09D
B17: GpH7-B3 variant K326_20W/GpL16-k0 (antibody, human IgG1, kappa)
heavy: not shown
light: B1 light
notes: also called Ho Ab K326_20W
B18: GpH7-B3 variant I332_14T/GpL16-k0 (antibody, human IgG1, kappa)
heavy: not shown
light: B1 light
notes: also called Ho Ab I332_14T
B19: GpH7-A5/GpH7-B3 variant P331_04F/GpL16-k0 (antibody, human IgG1, kappa)
heavy 1: not shown
heavy 2: not shown
light: B1 light
notes: also called He Ab P331_04F
B20: GpH7-B3 variant G237_13S/GpL16-k0 (antibody, human IgG1, kappa)
heavy: not shown
light: B1 light
notes: also called Ho Ab G237_13S
B21: GpH7-B3 variant N325_08L/GpL16-k0 (antibody, human IgG1, kappa)
heavy: not shown
light: B1 light
notes: also called Ho Ab N325_08L
B22: GpH7-B3 variant P238_06M/GpL16-k0 (antibody, human IgG1, kappa)
heavy: not shown
light: B1 light
notes: also called Ho Ab P238_06M
B23: GpH7-B3 variant I332_02A/GpL16-k0 (antibody, human IgG1, kappa)
heavy: not shown
light: B1 light
notes: also called Ho Ab I332_02A
B24: GpH7-B3 variant K326_07I/GpL16-k0 (antibody, human IgG1, kappa)
heavy: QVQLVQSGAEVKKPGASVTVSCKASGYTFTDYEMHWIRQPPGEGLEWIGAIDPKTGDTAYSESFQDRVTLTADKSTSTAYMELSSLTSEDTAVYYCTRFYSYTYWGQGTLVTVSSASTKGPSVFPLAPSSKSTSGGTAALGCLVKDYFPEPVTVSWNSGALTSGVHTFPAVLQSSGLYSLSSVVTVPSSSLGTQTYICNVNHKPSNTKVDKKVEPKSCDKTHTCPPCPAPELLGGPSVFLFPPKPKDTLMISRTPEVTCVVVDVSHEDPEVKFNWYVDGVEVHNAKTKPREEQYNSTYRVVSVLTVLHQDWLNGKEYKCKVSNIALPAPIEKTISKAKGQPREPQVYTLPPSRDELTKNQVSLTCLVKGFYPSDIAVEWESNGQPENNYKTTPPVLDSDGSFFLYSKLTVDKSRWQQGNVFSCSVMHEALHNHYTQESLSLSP
light: B1 light
notes: also called Ho Ab K326_07I
B25: GpH7-B3 variant G237_19Q/GpL16-k0 (antibody, human IgG1, kappa)
heavy: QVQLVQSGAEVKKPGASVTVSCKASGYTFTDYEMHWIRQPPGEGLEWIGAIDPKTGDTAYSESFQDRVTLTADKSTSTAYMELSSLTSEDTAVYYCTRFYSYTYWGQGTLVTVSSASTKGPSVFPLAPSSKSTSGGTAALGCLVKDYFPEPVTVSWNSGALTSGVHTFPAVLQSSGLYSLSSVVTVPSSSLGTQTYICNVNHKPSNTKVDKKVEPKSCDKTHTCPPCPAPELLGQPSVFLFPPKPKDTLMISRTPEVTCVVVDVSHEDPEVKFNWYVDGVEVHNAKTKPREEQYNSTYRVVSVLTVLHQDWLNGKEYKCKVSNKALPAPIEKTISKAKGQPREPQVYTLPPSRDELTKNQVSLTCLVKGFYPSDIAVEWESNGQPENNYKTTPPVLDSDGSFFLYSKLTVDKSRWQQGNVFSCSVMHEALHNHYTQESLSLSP
light: B1 light
notes: also called Ho Ab G237_19Q
B26: GpH7-B3 variant N325_09D/GpL16-k0 (antibody, human IgG1, kappa)
heavy: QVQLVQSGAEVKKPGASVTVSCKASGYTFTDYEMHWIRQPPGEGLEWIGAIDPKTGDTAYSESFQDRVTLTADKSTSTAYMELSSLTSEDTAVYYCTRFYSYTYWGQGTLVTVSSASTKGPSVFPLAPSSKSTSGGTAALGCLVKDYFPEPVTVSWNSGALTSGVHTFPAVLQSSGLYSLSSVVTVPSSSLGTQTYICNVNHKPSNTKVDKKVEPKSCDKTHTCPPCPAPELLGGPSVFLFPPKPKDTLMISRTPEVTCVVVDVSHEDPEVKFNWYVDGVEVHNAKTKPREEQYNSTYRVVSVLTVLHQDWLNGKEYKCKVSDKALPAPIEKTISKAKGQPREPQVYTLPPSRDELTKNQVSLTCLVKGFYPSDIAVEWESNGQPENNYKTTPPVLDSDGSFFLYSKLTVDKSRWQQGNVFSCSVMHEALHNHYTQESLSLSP
light: B1 light
notes: also called Ho Ab N325_09D
B27: GpH7-B3 variant L235_04F/GpL16-k0 (antibody, human IgG1, kappa)
heavy: not shown
light: B1 light
notes: also called Ho Ab L235_04F
B28: GpH7-B3 variant H268_05P/GpL16-k0 (antibody, human IgG1, kappa)
heavy: not shown
light: B1 light
notes: also called Ho Ab H268_05P
B29: GpH7-B3 variant N325_04F/GpL16-k0 (antibody, human IgG1, kappa)
heavy: not shown
light: B1 light
notes: also called Ho Ab N325_04F
B30: GpH7-B3 variant N325_13S/GpL16-k0 (antibody, human IgG1, kappa)
heavy: not shown
light: B1 light
notes: also called Ho Ab N325_13S
B31: GpH7-B3 variant G237_09D/GpL16-k0 (antibody, human IgG1, kappa)
heavy: not shown
light: B1 light
notes: also called Ho Ab G237_09D
B32: GpH7-B3 variant A327_18N/GpL16-k0 (antibody, human IgG1, kappa)
heavy: not shown
light: B1 light
notes: also called Ho Ab A327_18N
B33: GpH7-B3 variant P238_09D/GpL16-k0 (antibody, human IgG1, kappa)
heavy: not shown
light: B1 light
notes: also called Ho Ab P238_09D
B34: GpH7-B3 variant G237_08L/GpL16-k0 (antibody, human IgG1, kappa)
heavy: not shown
light: B1 light
notes: also called Ho Ab G237_08L
B35: GpH7-B3 variant N325_01G/GpL16-k0 (antibody, human IgG1, kappa)
heavy: not shown
light: B1 light
notes: also called Ho Ab N325_01G
B36: GpH7-B3 variant L328_02A/GpL16-k0 (antibody, human IgG1, kappa)
heavy: not shown
light: B1 light
notes: also called Ho Ab L328_02A
B37: GpH7-B3 variant L235_09D/GpL16-k0 (antibody, human IgG1, kappa)
heavy: not shown
light: B1 light
notes: also called Ho Ab L235_09D
B38: GpH7-B3 variant G237_10E/GpL16-k0 (antibody, human IgG1, kappa)
heavy: not shown
light: B1 light
notes: also called Ho Ab G237_10E
B39: GpH7-B3 variant A330_05P/GpL16-k0 (antibody, human IgG1, kappa)
heavy: not shown
light: B1 light
notes: also called Ho Ab A330_05P
B40: GpH7-B3 variant L235_20W/GpL16-k0 (antibody, human IgG1, kappa)
heavy: not shown
light: B1 light
notes: also called Ho Ab L235_20W
B41: GpH7-B3 variant G237_04F/GpL16-k0 (antibody, human IgG1, kappa)
heavy: not shown
light: B1 light
notes: also called Ho Ab G237_04F
B42: GpH7-B3 variant G237_18N/GpL16-k0 (antibody, human IgG1, kappa)
heavy: not shown
light: B1 light
notes: also called Ho Ab G237_18N
B43: GpH7-B3 variant L234_10E/GpL16-k0 (antibody, human IgG1, kappa)
heavy: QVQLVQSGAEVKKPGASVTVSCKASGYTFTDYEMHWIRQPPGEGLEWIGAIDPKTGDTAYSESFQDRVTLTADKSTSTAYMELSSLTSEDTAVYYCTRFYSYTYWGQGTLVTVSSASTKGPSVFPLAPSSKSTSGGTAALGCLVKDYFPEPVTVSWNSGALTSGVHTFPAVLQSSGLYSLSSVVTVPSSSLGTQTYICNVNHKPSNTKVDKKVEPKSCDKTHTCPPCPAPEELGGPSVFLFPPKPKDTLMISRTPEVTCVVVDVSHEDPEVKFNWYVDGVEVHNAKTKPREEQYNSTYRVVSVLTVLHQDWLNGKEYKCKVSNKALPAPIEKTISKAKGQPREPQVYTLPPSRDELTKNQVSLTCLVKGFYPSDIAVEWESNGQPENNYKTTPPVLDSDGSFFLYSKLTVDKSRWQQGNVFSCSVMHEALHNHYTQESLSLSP
light: B1 light
notes: also called Ho Ab L234_10E
B44: GpH7-B3 variant A330_01G/GpL16-k0 (antibody, human IgG1, kappa)
heavy: not shown
light: B1 light
notes: also called Ho Ab A330_01G
B45: GpH7-B3 variant G237_06M/GpL16-k0 (antibody, human IgG1, kappa)
heavy: not shown
light: B1 light
notes: also called Ho Ab G237_06M
B46: GpH7-B3 variant L328_13S/GpL16-k0 (antibody, human IgG1, kappa)
heavy: not shown
light: B1 light
notes: also called Ho Ab L328_13S
B47: GpH7-B3 variant H268_03V/GpL16-k0 (antibody, human IgG1, kappa)
heavy: not shown
light: B1 light
notes: also called Ho Ab H268_03V
B48: GpH7-B3 variant G237_20W/GpL16-k0 (antibody, human IgG1, kappa)
heavy: not shown
light: B1 light
notes: also called Ho Ab G237_20W
B49: GpH7-B3 variant N325_03V/GpL16-k0 (antibody, human IgG1, kappa)
heavy: not shown
light: B1 light
notes: also called Ho Ab N325_03V
B50: GpH7-B3 variant K326_08L/GpL16-k0 (antibody, human IgG1, kappa)
heavy: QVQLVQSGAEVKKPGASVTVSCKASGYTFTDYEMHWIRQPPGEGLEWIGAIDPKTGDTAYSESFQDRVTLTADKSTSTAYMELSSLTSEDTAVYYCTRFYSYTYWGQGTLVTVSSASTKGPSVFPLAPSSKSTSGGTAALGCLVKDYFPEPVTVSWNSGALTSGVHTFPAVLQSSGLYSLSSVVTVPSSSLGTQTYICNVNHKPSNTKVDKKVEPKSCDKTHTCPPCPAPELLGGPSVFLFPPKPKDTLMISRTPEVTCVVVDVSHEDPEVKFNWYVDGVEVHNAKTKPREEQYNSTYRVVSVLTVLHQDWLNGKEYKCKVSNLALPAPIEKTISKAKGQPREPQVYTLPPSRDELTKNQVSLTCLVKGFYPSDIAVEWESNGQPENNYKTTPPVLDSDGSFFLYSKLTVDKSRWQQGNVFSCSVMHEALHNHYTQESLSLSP
light: B1 light
notes: also called Ho Ab K326_08L

How the values were obtained:
[1] = molecular target: T1, FcγRIIb extracellular domain with …; experiment: SPR (Biacore), relative binding
Procedure: Analysis of interaction between objective antibody and the FcγR was carried out using Biacore T100 (GE Healthcare). HBS-EP+ (GE Healthcare) was used as the running buffer, and the measurement temperature was set to 25° C. Chips produced by immobilizing the antigen peptide by the amine coupling method to a Series S Sencor Chip CM5 (GE Healthcare), or alternatively, chips produced by allowing preliminarily biotinylated antigen peptides to interact with and immobilize onto a Series S Sensor Chip SA (certified) (GE Healthcare) were used. Antibodies of interest were captured onto an antigen peptide-immobilized chip, and allowed to interact to each FcγR diluted with running buffer. To regenerate and repeatedly use the chip, the antibodies captured on the chip were washed off by reacting 10 mM glycine-HCl, pH 1.5.

[2] = molecular target: T2, FcγRIIa R; experiment: SPR (Biacore), captured antibody, FcγR as analyte; relative binding activity

Ho/Con_2b [1]	He/Con_2aR [2]	Binder
47.8 % of HoCon Ab GpH7-B3/GpL16-k0		B1
37.6 % of HoCon Ab GpH7-B3/GpL16-k0		B2
159 % of HoCon Ab GpH7-B3/GpL16-k0		B3
127 % of HoCon Ab GpH7-B3/GpL16-k0		B4
96.6 % of HoCon Ab GpH7-B3/GpL16-k0		B5
209 % of HoCon Ab GpH7-B3/GpL16-k0		B6
104 % of HoCon Ab GpH7-B3/GpL16-k0		B7
90.1 % of HoCon Ab GpH7-B3/GpL16-k0		B8
159 % of HoCon Ab GpH7-B3/GpL16-k0		B9
88.2 % of HoCon Ab GpH7-B3/GpL16-k0		B10
44 % of HoCon Ab GpH7-B3/GpL16-k0		B11
83.1 % of HoCon Ab GpH7-B3/GpL16-k0		B12
103 % of HoCon Ab GpH7-B3/GpL16-k0		B13
80.6 % of HoCon Ab GpH7-B3/GpL16-k0		B14
146 % of HoCon Ab GpH7-B3/GpL16-k0		B15
68.5 % of HoCon Ab GpH7-B3/GpL16-k0		B16
132 % of HoCon Ab GpH7-B3/GpL16-k0		B17
106 % of HoCon Ab GpH7-B3/GpL16-k0		B18
	111 % (GpH7-A5/GpH7-B3/GpL16-k0 = 100)	B19
25.7 % of HoCon Ab GpH7-B3/GpL16-k0		B20
106 % of HoCon Ab GpH7-B3/GpL16-k0		B21
97.1 % of HoCon Ab GpH7-B3/GpL16-k0		B22
81.8 % of HoCon Ab GpH7-B3/GpL16-k0		B23
170 % of HoCon Ab GpH7-B3/GpL16-k0		B24
5.3 % of HoCon Ab GpH7-B3/GpL16-k0		B25

Ho/Con_2b [1]	He/Con_2aR [2]	Binder
77 % of HoCon Ab GpH7-B3/GpL16-k0		B26
111 % of HoCon Ab GpH7-B3/GpL16-k0		B27
109 % of HoCon Ab GpH7-B3/GpL16-k0		B28
65.7 % of HoCon Ab GpH7-B3/GpL16-k0		B29
159 % of HoCon Ab GpH7-B3/GpL16-k0		B30
92.9 % of HoCon Ab GpH7-B3/GpL16-k0		B31
101 % of HoCon Ab GpH7-B3/GpL16-k0		B32
207 % of HoCon Ab GpH7-B3/GpL16-k0		B33
49.4 % of HoCon Ab GpH7-B3/GpL16-k0		B34
20.2 % of HoCon Ab GpH7-B3/GpL16-k0		B35
117 % of HoCon Ab GpH7-B3/GpL16-k0		B36
78.7 % of HoCon Ab GpH7-B3/GpL16-k0		B37
17.8 % of HoCon Ab GpH7-B3/GpL16-k0		B38
35.3 % of HoCon Ab GpH7-B3/GpL16-k0		B39
116 % of HoCon Ab GpH7-B3/GpL16-k0		B40
140 % of HoCon Ab GpH7-B3/GpL16-k0		B41
63.9 % of HoCon Ab GpH7-B3/GpL16-k0		B42
54.9 % of HoCon Ab GpH7-B3/GpL16-k0		B43
102 % of HoCon Ab GpH7-B3/GpL16-k0		B44
35.3 % of HoCon Ab GpH7-B3/GpL16-k0		B45
147 % of HoCon Ab GpH7-B3/GpL16-k0		B46
109 % of HoCon Ab GpH7-B3/GpL16-k0		B47
166 % of HoCon Ab GpH7-B3/GpL16-k0		B48
31.8 % of HoCon Ab GpH7-B3/GpL16-k0		B49
168 % of HoCon Ab GpH7-B3/GpL16-k0		B50
